Results from PMC3140604.

What was measured:
[1] = substrate: CC(=O)O; assay: cells, lysate or membranes; type: cell-based, Homo sapiens; conditions: Na+ competes with nicotinate for uptake via SLC5A8
[2] = substrate: O=C(O)C(Cl)Cl; assay: cells, lysate or membranes; type: cell-based, Homo sapiens; conditions: Na+ competes with nicotinate for uptake via SLC5A8

B1: SLC5A8 (Homo sapiens) (protein)
chain: MDTPRGIGTFVVWDYVVFAGMLVISAAIGIYYAFAGGGQQTSKDFLMGGRRMTAVPVALSLTASFMSAVTVLGTPSEVYRFGAIFSIFAFTYFFVVVISAEVFLPVFYKLGITSTYEYLELRFNKCVRLCGTVLFIVQTILYTGIVIYAPALALNQVTGFDLWGAVVATGVVCTFYCTLGGLKAVIWTDVFQVGIMVAGFASVIIQAVVMQGGISTILNDAYDGGRLNFWNFNPNPLQRHTFWTIIIGGTFTWTSIYGVNQSQVQRYISCKSRFQAKLSLYINLVGLWAILTCSVFCGLALYSRYHDCDPWTAKKVSAPDQLMPYLVLDILQDYPGLPGLFVACAYSGTLSTVSSSINALAAVTVEDLIKPYFRSLSERSLSWISQGMSVVYGALCIGMAALASLMGALLQAALSVFGMVGGPLMGLFALGILVPFANSIGALVGLMAGFAISLWVGIGAQIYPPLPERTLPLHLDIQGCNSTYNETNLMTTTEMPFTTSVFQIYNVQRTPLMDNWYSLSYLYFSTVGTLVTLLVGILVSLSTGGRKQNLDPRYILTKEDFLSNFDIFKKKKHVLSYKSHPVEDGGTDNPAFNHIELNSDQSGKSNGTRL
- Km [1]: 1600 ± 100 µM
- Km [2]: 36 ± 7 µM
